The text below walks through data of paper PMC11335225.

In test [1] the target is flag-tagged KV7.2 channel subunit (UniProt O43526).
Test [2] shares this target. The source holds these as a separate data set.

UniProt O43526, sequence (O43526 whole entry): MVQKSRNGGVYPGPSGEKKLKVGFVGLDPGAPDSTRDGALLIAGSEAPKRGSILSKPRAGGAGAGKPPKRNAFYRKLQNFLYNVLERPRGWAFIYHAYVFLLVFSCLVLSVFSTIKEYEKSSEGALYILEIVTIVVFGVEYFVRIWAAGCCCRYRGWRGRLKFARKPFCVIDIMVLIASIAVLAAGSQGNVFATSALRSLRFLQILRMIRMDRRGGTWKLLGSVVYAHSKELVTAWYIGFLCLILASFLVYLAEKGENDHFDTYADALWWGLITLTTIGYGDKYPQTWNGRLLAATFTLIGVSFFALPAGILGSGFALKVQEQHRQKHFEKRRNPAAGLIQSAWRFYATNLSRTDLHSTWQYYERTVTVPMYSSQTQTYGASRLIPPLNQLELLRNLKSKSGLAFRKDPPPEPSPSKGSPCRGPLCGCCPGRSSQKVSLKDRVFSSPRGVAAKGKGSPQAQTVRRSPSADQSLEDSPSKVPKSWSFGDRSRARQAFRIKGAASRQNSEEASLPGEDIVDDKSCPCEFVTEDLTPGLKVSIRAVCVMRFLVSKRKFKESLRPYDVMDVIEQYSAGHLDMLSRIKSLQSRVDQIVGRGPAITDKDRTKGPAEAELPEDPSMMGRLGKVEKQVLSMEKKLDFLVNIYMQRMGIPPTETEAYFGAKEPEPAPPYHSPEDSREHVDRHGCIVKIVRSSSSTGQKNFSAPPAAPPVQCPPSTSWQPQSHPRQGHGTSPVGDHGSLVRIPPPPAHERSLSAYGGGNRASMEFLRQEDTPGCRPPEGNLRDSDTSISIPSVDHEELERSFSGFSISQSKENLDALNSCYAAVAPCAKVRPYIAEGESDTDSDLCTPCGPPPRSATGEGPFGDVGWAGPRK

As to “pore-mutated KV8.1(AAA) (from UniProt Q6PIU1 1-500) (natural protein)”, the current amplitude (patch clamp) in CHO cells co-transfected with KV8.1(AAA) and wild-type KV7.2 at a 1:1 ratio, relative to co-transfection of wild-type channels in test [1] is 49.4%. The steady-state current density at +20 mV (patch clamp) in CHO cells co-transfected with KV8.1(AAA) and wild-type KV7.2 (4:1), relative to both wild-type constructs in test [2] turned out to be 50%.

B1: KV8.1 G399R (natural protein)
chain: MPSSGRALLDSPLDSGSLTSLDSSVFCSEGEGEPLALGDCFTVNVGGSRFVLSQQALSCFPHTRLGKLAVVVASYRRPGALAAVPSPLELCDDANPVDNEYFFDRSSQAFRYVLHYYRTGRLHVMEQLCALSFLQEIQYWGIDELSIDSCCRDRYFRRKELSETLDFKKDTEDQESQHESEQDFSQGPCPTVRQKLWNILEKPGSSTAARIFGVISIIFVVVSIINMALMSAELSWLDLQLLEILEYVCISWFTGEFVLRFLCVRDRCRFLRKVPNIIDLLAILPFYITLLVESLSGSQTTQELENVGRIVQVLRLLRALRMLKLGRHSTGLRSLGMTITQCYEEVGLLLLFLSVGISIFSTVEYFAEQSIPDTTFTSVPCAWWWATTSMTTVGYRDIRPDTTTGKIVAFMCILSGILVLALPIAIINDRFSACYFTLKLKEAAVRQREALKKLTKNIATDSYISVNLRDVYARSIMEMLRLKGRERASTRSSGGDDFWF
As for B1, the current amplitude (patch clamp) in CHO cells co-transfected with KV8.1 G399R and wild-type KV7.2 (4:1), relative to both wild-type constructs in test [1] was determined as 54%.

B2: KV8.1 W388G (natural protein)
chain: MPSSGRALLDSPLDSGSLTSLDSSVFCSEGEGEPLALGDCFTVNVGGSRFVLSQQALSCFPHTRLGKLAVVVASYRRPGALAAVPSPLELCDDANPVDNEYFFDRSSQAFRYVLHYYRTGRLHVMEQLCALSFLQEIQYWGIDELSIDSCCRDRYFRRKELSETLDFKKDTEDQESQHESEQDFSQGPCPTVRQKLWNILEKPGSSTAARIFGVISIIFVVVSIINMALMSAELSWLDLQLLEILEYVCISWFTGEFVLRFLCVRDRCRFLRKVPNIIDLLAILPFYITLLVESLSGSQTTQELENVGRIVQVLRLLRALRMLKLGRHSTGLRSLGMTITQCYEEVGLLLLFLSVGISIFSTVEYFAEQSIPDTTFTSVPCAWWGATTSMTTVGYGDIRPDTTTGKIVAFMCILSGILVLALPIAIINDRFSACYFTLKLKEAAVRQREALKKLTKNIATDSYISVNLRDVYARSIMEMLRLKGRERASTRSSGGDDFWF
B2 displayed a current amplitude (patch clamp) in CHO cells co-transfected with KV8.1 W388G and wild-type KV7.2 (4:1), relative to both wild-type constructs in test [1] of 44.1%.
